From US20160108123A1 (Novartis, published 2016)

Legend:
[1] = target: T1, human PD-L1 protein (human, UniProt Q9NZQ7 19-238, limits assumed); experiment: Biacore T-100; IgG captured by anti-human Fab on CM5 chip, PD-L1 flowed over (100-1.56 nM), 1:1 fit
T1 construct: Construct not described
Method: (§1) Immobilization was done at 25° C. using a flow rate of 10 μl/min. […] Test antibody was captured on Flow cell FC2, FC3 and FC4. […] Run Biacore Wizards Kinetic/Affinity: association time 120 sec, dissociation 600 sec. (Running buffer HBS-EP+BSA 0.25 mg/ml, Regeneration buffer: 10 mM glycine HCl pH 2.1). Data analyses were done with Biacore T-100 Evaluation software version 2, fit on 1:1.

[2] = target: T2, cynomolgus PD-L1 protein (cynomolgus, UniProt G7PSE7 19-238); experiment: as above
T2 construct: also called Monkey PD-L1; cyno PD-L1
T2 sequence (G7PSE7 entry or part of it): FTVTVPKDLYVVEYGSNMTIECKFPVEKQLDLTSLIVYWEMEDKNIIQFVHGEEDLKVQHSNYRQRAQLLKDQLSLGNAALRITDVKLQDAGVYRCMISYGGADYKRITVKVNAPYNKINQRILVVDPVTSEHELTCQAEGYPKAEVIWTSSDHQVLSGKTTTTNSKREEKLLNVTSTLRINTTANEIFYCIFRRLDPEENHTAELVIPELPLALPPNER
Method: as §1

[3] = target: mouse PD-L1 protein (mouse, UniProt Q9EP73 19-238, limits assumed); experiment: as above
Sequence of mouse PD-L1 protein (Q9EP73 19-238 limits assumed): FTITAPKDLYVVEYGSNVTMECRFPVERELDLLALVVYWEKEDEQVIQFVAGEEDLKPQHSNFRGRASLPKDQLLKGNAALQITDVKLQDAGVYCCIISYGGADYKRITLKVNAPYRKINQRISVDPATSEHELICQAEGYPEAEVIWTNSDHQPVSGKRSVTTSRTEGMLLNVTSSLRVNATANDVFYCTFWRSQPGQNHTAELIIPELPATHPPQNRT
Method: as §1

[4] = target: rat PD-L1 protein (rat, UniProt D4AE25 19-239); experiment: as above
Sequence of rat PD-L1 protein (D4AE25 entry or part of it limits assumed): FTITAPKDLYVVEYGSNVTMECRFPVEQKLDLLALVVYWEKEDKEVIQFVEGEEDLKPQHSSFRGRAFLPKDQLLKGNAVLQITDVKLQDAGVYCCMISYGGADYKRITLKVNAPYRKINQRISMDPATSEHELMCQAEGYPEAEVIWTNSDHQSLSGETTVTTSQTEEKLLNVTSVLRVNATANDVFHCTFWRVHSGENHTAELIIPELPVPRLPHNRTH
Method: as §1

[5] = target: T3, human PD-L1 expressed on 300.19 cells (human, UniProt Q9NZQ7 19-290); experiment: competition FACS against Alexa 488-labeled murine BAP058 on PD-L1-expressing 300.19 cells
T3 construct: whole, on cells; also called huPD-L1; PD-L1-expressing 300.19 cells
T3 sequence (Q9NZQ7 19-290): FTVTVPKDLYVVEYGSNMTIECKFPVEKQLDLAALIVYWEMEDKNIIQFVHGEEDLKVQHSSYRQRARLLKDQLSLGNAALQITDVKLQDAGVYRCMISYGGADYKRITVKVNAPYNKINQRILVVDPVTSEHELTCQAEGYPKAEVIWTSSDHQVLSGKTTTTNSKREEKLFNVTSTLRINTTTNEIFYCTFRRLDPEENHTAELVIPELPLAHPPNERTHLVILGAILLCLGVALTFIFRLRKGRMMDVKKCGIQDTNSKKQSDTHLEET
Method: (§2) Incubations with the mAb mixtures having different concentration ratios of test mAb to labeled mAb was at 4° C. for 30 min. Bound labeled murine mAb was then quantified using a FACS machine. The experiment was performed twice.

[6] = target: T3, human PD-L1 expressed on 300.19 cells; experiment: blocking of PE-labelled PD-1-Ig (0.7 µg/mL) binding to PD-L1-expressing 300.19 cells, FACS, 4 C, 4 h
Method: (§3) Bound fluorescence was then measured using FACS and IC₅₀ values determined using Prism software.

[7] = target: T3, human PD-L1 expressed on 300.19 cells; experiment: semi-quantitative ranking in the binding studies (4th column, p-1058; FACS data, p-1056); high number = poorer binder; the column's head says only 'Rank'
[8] = target: T3, human PD-L1 expressed on 300.19 cells; experiment: FACS competition on PD-L1-expressing 300.19 cells; competitor Alexa 488-labeled murine BAP058
Method: as §2

[9] = target: T3, human PD-L1 expressed on 300.19 cells; experiment: FACS competition; blocking of PE-labelled PD-1-Ig (0.7 ug/mL) on PD-L1-expressing 300.19 cells
Method: as §3

T1 sequence (Q9NZQ7 19-238 limits assumed): as the sequence (G7PSE7 entry or part of it) above, with T33A, S34A, N62S, Q68R, R82Q, L173F, A185T, I192T, L215H counted along it

Row | Kd [1] | Kd [2] | Kd [3] | Kd [4] | Comp. binding (ratio conc. test mAb / conc. labelled murine BAP058 at the IC50) [5] | IC50 (read off the curve) [6] | Rank [7] | ratio for the IC50 value (concentration of test mAb over labelled murine BAP058) [8] | IC50 [9] | Binder
1 | 0.137 nM | 0.431 nM | 0.04 nM | 0.431 nM | 2.91 | ~0.04 µg/mL | 2 | – | – | BAP058-hum13 (antibody, human IgG4 S228P, kappa, V domains shown, Humanized IgG4(S228P)/human kappa mAb expressed in CHO cells) VH: EVQLVQSGAEVKKPGATVKISCKVSGYTFTSYWMYWVRQARGQRLEWIGRIDPNSGSTKYNEKFKNRFTISRDNSKNTLYLQMNSLRAEDTAVYYCARDYRKGLYAMDYWGQGTTVTVSS VL: AIQLTQSPSSLSASVGDRVTITCKASQDVGTAVAWYLQKPGQSPQLLIYWASTRHTGVPSRFSGSGSGTDFTFTISSLEAEDAATYYCQQYNSYPLTFGQGTKVEIKR
2 | 0.931 nM | 0.735 nM | 0.075 nM | 1.36 nM | 1.3 | ~0.04 µg/mL | 4 | – | – | BAP058-hum11 (antibody, human IgG4 S228P, kappa, V domains shown, Humanized IgG4(S228P)/human kappa mAb expressed in CHO cells) VH: EVQLVQSGAEVKKPGATVKISCKVSGYTFTSYWMYWVRQATGQGLEWMGRIDPNSGSTKYNEKFKNRVTITADKSTSTAYMELSSLRSEDTAVYYCARDYRKGLYAMDYWGQGTTVTVSS VL: DVVMTQSPLSLPVTLGQPASISCKASQDVGTAVAWYQQKPGQAPRLLIYWASTRHTGVPSRFSGSGSGTEFTLTISSLQPDDFATYYCQQYNSYPLTFGQGTKVEIKR
3 | – | – | – | – | – | – | – | 1.34 | 0.3 nM | murine anti-PD-L1 monoclonal antibody BAP058 (antibody, V domains shown, Murine mAb; also called murine mAb BAP058; murine parent mAb) VH: QVHLQQPGAELVKPGASVKLSCKASGYTFTSYWMYWVKQGPGRGLEWIGRIDPNSGSTKYNEKFKNKATLTVDKSSSTAYMQLSSLTSEDSAVYYCARDYRKGLYAMDYWGQGTSVTVSS VL: DIVMTQSHKFMSTSVGDRVSITCKASQDVGTAVAWYQQKPGQSPKLLIYWASTRHTGVPDRFTGSGSGTDFTLTISNVQSEDLADYFCQQYNSYPLTFGAGSKLELK
